Columns and labels:
DLL3 = target: T1, DLL3 (human, UniProt Q9NYJ7 27-618); assay: flow cytometry on SHP-77 cells, anti-human IgG Fc secondary
T1 construct: also called Delta-like 3; Human DLL3
T1 sequence: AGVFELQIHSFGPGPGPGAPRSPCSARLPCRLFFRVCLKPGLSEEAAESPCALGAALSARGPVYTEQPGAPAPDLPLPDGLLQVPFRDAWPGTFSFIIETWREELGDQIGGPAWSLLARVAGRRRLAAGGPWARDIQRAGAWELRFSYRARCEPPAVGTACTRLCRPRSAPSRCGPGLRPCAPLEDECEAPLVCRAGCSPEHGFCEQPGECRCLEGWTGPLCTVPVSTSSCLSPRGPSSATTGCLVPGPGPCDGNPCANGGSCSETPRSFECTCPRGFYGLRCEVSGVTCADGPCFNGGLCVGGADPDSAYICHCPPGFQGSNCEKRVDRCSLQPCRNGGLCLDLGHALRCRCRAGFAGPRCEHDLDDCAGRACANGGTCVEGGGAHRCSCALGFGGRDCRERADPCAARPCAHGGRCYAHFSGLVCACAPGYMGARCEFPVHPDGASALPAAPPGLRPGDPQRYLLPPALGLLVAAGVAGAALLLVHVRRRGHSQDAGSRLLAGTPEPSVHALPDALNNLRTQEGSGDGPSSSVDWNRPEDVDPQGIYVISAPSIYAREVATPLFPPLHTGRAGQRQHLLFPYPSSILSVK
Procedure: (§1) Binding of exemplary multispecific constructs containing an antigen-binding domain directed against DLL3 were assessed for binding to DLL3 positive SHP-77 tumor cells or primary T-cells. […] These binding assays were conducted by flow cytometry, wherein bound constructs were detected using a fluorophore-conjugated anti-human IgG Fc secondary antibody.

CD3 = target: T2, CD3 (human, UniProt P07766 23-207); assay: flow cytometry on primary T cells, anti-human IgG Fc secondary
T2 construct: whole, on cells; CD3 is a multi-chain complex; also called CD3ε; CD3 on the surface of primary T cells
Procedure: as §1

B7H3 = target: T3, B7H3 (UniProt Q5ZPR3 29-534, limits assumed); assay: flow cytometry on A375 cells
T3 construct: whole, on cells; also called CD276
T3 sequence (looked up): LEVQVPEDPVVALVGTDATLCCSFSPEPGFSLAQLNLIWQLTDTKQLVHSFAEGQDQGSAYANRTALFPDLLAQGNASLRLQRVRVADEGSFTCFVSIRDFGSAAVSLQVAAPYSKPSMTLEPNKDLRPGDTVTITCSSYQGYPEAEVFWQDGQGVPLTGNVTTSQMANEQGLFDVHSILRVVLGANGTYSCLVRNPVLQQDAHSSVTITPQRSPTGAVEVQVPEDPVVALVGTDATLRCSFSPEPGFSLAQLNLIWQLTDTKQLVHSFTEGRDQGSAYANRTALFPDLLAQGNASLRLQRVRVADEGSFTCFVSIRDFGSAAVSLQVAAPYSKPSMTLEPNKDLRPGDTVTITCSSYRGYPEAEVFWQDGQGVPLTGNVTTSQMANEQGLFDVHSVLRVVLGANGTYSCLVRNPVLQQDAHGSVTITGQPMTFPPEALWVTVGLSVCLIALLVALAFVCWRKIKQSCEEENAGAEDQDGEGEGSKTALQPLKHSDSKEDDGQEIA

T2 sequence (P07766 23-207): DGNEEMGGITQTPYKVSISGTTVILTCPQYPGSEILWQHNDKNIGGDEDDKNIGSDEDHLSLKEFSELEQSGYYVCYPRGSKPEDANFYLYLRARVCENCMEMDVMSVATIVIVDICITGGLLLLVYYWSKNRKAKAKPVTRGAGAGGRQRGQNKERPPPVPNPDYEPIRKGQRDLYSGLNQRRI

Row | Binder | binding result (DLL3) | binding result (CD3) | binding result (B7H3)
1 | cx5352 (other, Fc alternatives printed; first written; Short peptide linkers only 'e.g.') chain 1: EVQLVESGGGEVQPGGSLRLSCAASGSIFSINAMGWYRQAPGKQRELVAGFTGDTNTIYAESVKGRFTISRDNAKNTVYLQMSSLRAEDTAVYYCAADVQLFSRDYEFYWGQGTLVTVKPPGGGGDKTHTCPPCPAPGGPSVFLFPPKPKDTLMISRTPEVTCVVVDVSHEDPEVKFNWYVDGVEVHNAKTKPREEQYNSTYRVVSVLTVLHQDWLNGKEYKCKVSNKALPAPIEKTISKAKGQPREPQVYTLPPCRDELTKNQVSLWCLVKGFYPSDIAVEWESNGQPENNYKTTPPVLDSDGSFFLYSKLTVDKSRWQQGNVFSCSVMHEALHNHYTQKSLSLSPTGGGGGSGGGGGSGGGGGSEVQLVESGGGLVQPGGSLRLSCAASGFTFNTYAMNWVRQAPGKCLEWVARIRSKYNNYATYYADSVKGRFTISRDDAKNTLYLQMSSLRAEDTAVYYCVRHGNFGNSYVSWFAYWGQGTLVTVKPGGGGEVQLVESGGGEVQPGGSLRLSCGPSEIITSDKSMGWVRQAPGKQRNLVAGISNVGSTNYAQSVKGRFTISRDNAKNTVYLQMSSLRAEDTAVYYCYARDFENEYWGQGTLVTVKP chain 2: DKTHTCPPCPAPGGPSVFLFPPKPKDTLMISRTPEVTCVVVDVSHEDPEVKFNWYVDGVEVHNAKTKPREEQYNSTYRVVSVLTVLHQDWLNGKEYKCKVSNKALPAPIEKTISKAKGQPREPQVCTLPPSRDELTKNQVSLSCAVKGFYPSDIAVEWESNGQPENNYKTTPPVLDSDGSFFLVSKLTVDKSRWQQGNVFSCSVMHEALHNRYTQKSLSLSPTGGGGGSGGGGGSGGGGGSQAVVTQEPSLTVSPGGTVTLTCGSSTGAVTTSNYANWVQQKPGQAFRGLIGGTNKRAPGVPARFSGSLLGGKAALTISGAQPEDEADYYCALWYSNHWVFGCGTKLEIKGGGGEVQLLESGGGEVQPGGSLRLSCAASGFSFSINAMGWYRQAPGKRREFVAAIESGRNTVYAESVKGRFTISRDNAKNTVYLQMSSLRAEDTAVYYCGLLKGNRVVSPSVAYWGQGTLVTVKP | binds | no binding | –
2 | cx5800 (other, Fc alternatives printed; first written; Short peptide linkers only 'e.g.'; also called monovalent DLL3-targeted constrained CD3 engaging construct (N-terminal sdAb)) chain 1: EVQLVESGGGEVQPGGSLRLSCAASGSIFSINAMGWYRQAPGKQRELVAGFTGDTNTIYAESVKGRFTISRDNAKNTVYLQMSSLRAEDTAVYYCAADVQLFSRDYEFYWGQGTLVTVKPPGGGGDKTHTCPPCPAPGGPSVFLFPPKPKDTLMISRTPEVTCVVVDVSHEDPEVKFNWYVDGVEVHNAKTKPREEQYNSTYRVVSVLTVLHQDWLNGKEYKCKVSNKALPAPIEKTISKAKGQPREPQVYTLPPCRDELTKNQVSLWCLVKGFYPSDIAVEWESNGQPENNYKTTPPVLDSDGSFFLYSKLTVDKSRWQQGNVFSCSVMHEALHNHYTQKSLSLSPTGGGGGSGGGGGSGGGGGSEVQLVESGGGLVQPGGSLRLSCAASGFTFNTYAMNWVRQAPGKCLEWVARIRSKYNNYATYYADSVKGRFTISRDDAKNTLYLQMSSLRAEDTAVYYCVRHGNFGNSYVSWFAYWGQGTLVTVKP chain 2: DKTHTCPPCPAPGGPSVFLFPPKPKDTLMISRTPEVTCVVVDVSHEDPEVKFNWYVDGVEVHNAKTKPREEQYNSTYRVVSVLTVLHQDWLNGKEYKCKVSNKALPAPIEKTISKAKGQPREPQVCTLPPSRDELTKNQVSLSCAVKGFYPSDIAVEWESNGQPENNYKTTPPVLDSDGSFFLVSKLTVDKSRWQQGNVFSCSVMHEALHNRYTQKSLSLSPTGGGGGSGGGGGSGGGGGSQAVVTQEPSLTVSPGGTVTLTCGSSTGAVTTSNYANWVQQKPGQAFRGLIGGTNKRAPGVPARFSGSLLGGKAALTISGAQPEDEADYYCALWYSNHWVFGCGTKLEIKGGGGEVQLLESGGGEVQPGGSLRLSCAASGFSFSINAMGWYRQAPGKRREFVAAIESGRNTVYAESVKGRFTISRDNAKNTVYLQMSSLRAEDTAVYYCGLLKGNRVVSPSVAYWGQGTLVTVKP | binds | no binding | –
3 | cx5801 (other, Fc alternatives printed; first written; Short peptide linkers only 'e.g.'; also called monovalent DLL3-targeted constrained CD3 engaging construct (C-terminal sdAb)) chain 1: DKTHTCPPCPAPGGPSVFLFPPKPKDTLMISRTPEVTCVVVDVSHEDPEVKFNWYVDGVEVHNAKTKPREEQYNSTYRVVSVLTVLHQDWLNGKEYKCKVSNKALPAPIEKTISKAKGQPREPQVYTLPPCRDELTKNQVSLWCLVKGFYPSDIAVEWESNGQPENNYKTTPPVLDSDGSFFLYSKLTVDKSRWQQGNVFSCSVMHEALHNHYTQKSLSLSPTGGGGGSGGGGGSGGGGGSEVQLVESGGGLVQPGGSLRLSCAASGFTFNTYAMNWVRQAPGKCLEWVARIRSKYNNYATYYADSVKGRFTISRDDAKNTLYLQMSSLRAEDTAVYYCVRHGNFGNSYVSWFAYWGQGTLVTVKPGGGGEVQLVESGGGEVQPGGSLRLSCGPSEIITSDKSMGWVRQAPGKQRNLVAGISNVGSTNYAQSVKGRFTISRDNAKNTVYLQMSSLRAEDTAVYYCYARDFENEYWGQGTLVTVKP chain 2: DKTHTCPPCPAPGGPSVFLFPPKPKDTLMISRTPEVTCVVVDVSHEDPEVKFNWYVDGVEVHNAKTKPREEQYNSTYRVVSVLTVLHQDWLNGKEYKCKVSNKALPAPIEKTISKAKGQPREPQVCTLPPSRDELTKNQVSLSCAVKGFYPSDIAVEWESNGQPENNYKTTPPVLDSDGSFFLVSKLTVDKSRWQQGNVFSCSVMHEALHNRYTQKSLSLSPTGGGGGSGGGGGSGGGGGSQAVVTQEPSLTVSPGGTVTLTCGSSTGAVTTSNYANWVQQKPGQAFRGLIGGTNKRAPGVPARFSGSLLGGKAALTISGAQPEDEADYYCALWYSNHWVFGCGTKLEIKGGGGEVQLLESGGGEVQPGGSLRLSCAASGFSFSINAMGWYRQAPGKRREFVAAIESGRNTVYAESVKGRFTISRDNAKNTVYLQMSSLRAEDTAVYYCGLLKGNRVVSPSVAYWGQGTLVTVKP | binds | no binding | –
4 | DART-Fc B7H3xCD3 (bispecific antibody, Comparator; also called DART-Fc format B7H3xCD3; B7-H3 x CD3 Bispecific DART-A Diabody) chain 1: DIQLTQSPSFLSASVGDRVTITCKASQNVDTNVAWYQQKPGKAPKALIYSASYRYSGVPSRFSGSGSGTDFTLTISSLQPEDFATYYCQQYNNYPFTFGQGTKLEIKGGGSGGGGEVQLVESGGGLVQPGGSLRLSCAASGFTFSTYAMNWVRQAPGKGLEWVGRIRSKYNNYATYYADSVKDRFTISRDDSKNSLYLQMNSLKTEDTAVYYCVRHGNFGNSYVSWFAYWGQGTLVTVSSGGCGGGEVAALEKEVAALEKEVAALEKEVAALEKGGGDKTHTCPPCPAPEAAGGPSVFLFPPKPKDTLMISRTPEVTCVVVDVSHEDPEVKFNWYVDGVEVHNAKTKPREEQYNSTYRVVSVLTVLHQDWLNGKEYKCKVSNKALPAPIEKTISKAKGQPREPQVYTLPPSREEMTKNQVSLWCLVKGFYPSDIAVEWESNGQPENNYKTTPPVLDSDGSFFLYSKLTVDKSRWQQGNVFSCSVMHEALHNHYTQKSLSLSPGK chain 2: QAVVTQEPSLTVSPGGTVTLTCRSSTGAVTTSNYANWVQQKPGQAPRGLIGGTNKRAPWTPARFSGSLLGGKAALTITGAQAEDEADYYCALWYSNLWVFGGGTKLTVLGGGGSGGGGEVQLVESGGGLVQPGGSLRLSCAASGFTFSSFGMHWVRQAPGKGLEWVAYISSDSSAIYYADTVKGRFTISRDNAKNSLYLQMNSLRDEDTAVYYCGRGRENIYYGSRLDYWGQGTTVTVSSGGCGGGKVAALKEKVAALKEKVAALKEKVAALKE chain 3: not shown | – | – | binds
